Ends that are not written are not given here.
What was measured:
Assay in all cases: peptide microarray
[1] = molecular target: T1, ApoC3 peptide … F64V (human, not fully specified (bridges); also: cyclic constrained)
T1 peptide: DKFSEVWDLDPEV
In short: (§1)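 ApoC3 peptide microarrays incubated with antibody samples and then stained with goat anti-human IgG (Fc) DyLight680 plus anti-HA DyLight800 control antibody. Scanned at intensity 7/7 (red/green); a secondary-only prestain checked for background, and framing HA peptides served as quality control.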

[2] = molecular target: T2, ApoC3 peptide … F61E (human, cyclic constrained)
T2 peptide: DKESEFWDLDPEV
In short: as §1

[3] = molecular target: ApoC3 peptide … P69T (human, cyclic constrained)
In short: as §1

[4] = molecular target: T3, ApoC3 peptide … D59A (human, cyclic constrained)
T3 peptide: AKFSEFWDLDPEV
In short: as §1

[5] = molecular target: T4, ApoC3 peptide … F61H (human, cyclic constrained)
T4 peptide: DKHSEFWDLDPEV
In short: as §1

[6] = molecular target: T5, ApoC3 peptide … E70P (human, not fully specified (bridges); also: cyclic constrained)
T5 peptide: DKFSEFWDLDPPV
In short: as §1

[7] = molecular target: T6, ApoC3 peptide … L67Y (human, not fully specified (bridges); also: cyclic constrained)
T6 peptide: DKFSEFWDYDPEV
In short: as §1

[8] = molecular target: ApoC3 peptide … P69Q (human, cyclic constrained)
In short: as §1

[9] = molecular target: T7, ApoC3 peptide … F61G (human, cyclic constrained)
T7 peptide: DKGSEFWDLDPEV
In short: as §1

[10] = molecular target: T8, ApoC3 peptide … F61Y (human, not fully specified (bridges); also: cyclic constrained)
T8 peptide: DKYSEFWDLDPEV
In short: as §1

[11] = molecular target: ApoC3 peptide … E63Q (human, cyclic constrained)
In short: as §1

[12] = molecular target: T9, ApoC3 peptide … F64M (human, not fully specified (bridges); also: cyclic constrained)
T9 peptide: DKFSEMWDLDPEV
In short: as §1

[13] = molecular target: T10, ApoC3 peptide … D59S (human, cyclic constrained)
T10 peptide: SKFSEFWDLDPEV
In short: as §1

[14] = molecular target: ApoC3 peptide … P69N (human, cyclic constrained)
In short: as §1

[15] = molecular target: T11, ApoC3 peptide … D66M (human, not fully specified (bridges); also: cyclic constrained)
T11 peptide: DKFSEFWMLDPEV
In short: as §1

[16] = molecular target: T12, ApoC3 peptide … K60I (human, not fully specified (bridges); also: cyclic constrained)
T12 peptide: DIFSEFWDLDPEV
In short: as §1

[17] = molecular target: ApoC3 peptide … W65A (human, cyclic constrained)
In short: as §1

[18] = molecular target: ApoC3 peptide … V71I (human, cyclic constrained)
In short: as §1

[19] = molecular target: T13, ApoC3 peptide … L67T (human, not fully specified (bridges); also: cyclic constrained)
T13 peptide: DKFSEFWDTDPEV
In short: as §1

[20] = molecular target: T14, ApoC3 peptide … F64R (human, not fully specified (bridges); also: cyclic constrained)
T14 peptide: DKFSERWDLDPEV
In short: as §1

[21] = molecular target: T15, ApoC3 peptide … F64Q (human, not fully specified (bridges); also: cyclic constrained)
T15 peptide: DKFSEQWDLDPEV
In short: as §1

[22] = molecular target: T16, ApoC3 peptide … E70N (human, not fully specified (bridges); also: cyclic constrained)
T16 peptide: DKFSEFWDLDPNV
In short: as §1

[23] = molecular target: ApoC3 peptide … E63D (human, cyclic constrained)
In short: as §1

[24] = molecular target: ApoC3 peptide … V71D (human, cyclic constrained)
In short: as §1

[25] = molecular target: T17, ApoC3 peptide … W65N (human, not fully specified (bridges); also: cyclic constrained, ring type and places not given here)
T17 peptide: DKFSEFNDLDPEV
In short: as §1

[26] = molecular target: T18, ApoC3 peptide … F64Y (human, not fully specified (bridges); also: cyclic constrained)
T18 peptide: DKFSEYWDLDPEV
In short: as §1

[27] = molecular target: T19, ApoC3 peptide … F64I (human, not fully specified (bridges); also: cyclic constrained)
T19 peptide: DKFSEIWDLDPEV
In short: as §1

[28] = molecular target: ApoC3 peptide … E70F (human, cyclic constrained)
In short: as §1

[29] = molecular target: T20, ApoC3 peptide … D59C (human, cyclic constrained)
T20 peptide: CKFSEFWDLDPEV
In short: as §1

[30] = molecular target: T21, ApoC3 peptide … K60E (human, not fully specified (bridges); also: cyclic constrained)
T21 peptide: DEFSEFWDLDPEV
In short: as §1

[31] = molecular target: ApoC3 peptide … P69W (human, cyclic constrained)
In short: as §1

[32] = molecular target: T22, ApoC3 peptide … W65L (human, not fully specified (bridges); also: cyclic constrained, ring type and places not given here)
T22 peptide: DKFSEFLDLDPEV
In short: as §1

[33] = molecular target: T23, ApoC3 peptide … E70Y (human, cyclic constrained)
T23 peptide: DKFSEFWDLDPYV
In short: as §1

[34] = molecular target: T24, ApoC3 peptide … D68N (human, cyclic constrained)
T24 peptide: DKFSEFWDLNPEV
In short: as §1

[35] = molecular target: T25, ApoC3 peptide … W65S (human, not fully specified (bridges); also: cyclic constrained, ring type and places not given here)
T25 peptide: DKFSEFSDLDPEV
In short: as §1

[36] = molecular target: T26, ApoC3 peptide … D68A (human, not fully specified (bridges); also: cyclic constrained)
T26 peptide: DKFSEFWDLAPEV
In short: as §1

[37] = molecular target: ApoC3 peptide … V71H (human, cyclic constrained)
In short: as §1

B1: anti-ApoC3 antibody 6A6 (antibody, V domains shown)
VH: EVQLVESGGGLVQPGGSLRLSCAASGFTFSSYAGRWVRQVPGKGLEWVSSINAGGGSTSYADSVKGRFTISRDNAKNTLYLQMNSLKPEDTAKYYCTQNSYRYWGQGTRVAVSS
VL: DVVLTQTPGSLSVVPGESASISCKASQSLIHTDGKTYLYWLLQKPGQRPQLLIYQVSSHESGVPDRFTGSGSGTDFTLKISGVKAEDAGVYYCAQATYNPRTFGQGTKLEIK
notes: it was detected with goat anti-human IgG (Fc); also called mAb 6A6; llama antibody 6A6
[1]
  % of binding to wild-type peptide: 86%
[2]
  % of binding to wild-type peptide: 83.9%
[3]
  % of binding to wild-type peptide: 118%
[4]
  % of binding to wild-type peptide: 86.4%
[5]
  % of binding to wild-type peptide: 44.2%
[6]
  % of binding to wild-type peptide: 2.53%
[7]
  % of binding to wild-type peptide: 3.08%
[8]
  % of binding to wild-type peptide: 28.2%
[9]
  % of binding to wild-type peptide: 25.9%
[10]
  % of binding to wild-type peptide: 112%
[11]
  % of binding to wild-type peptide: 46.3%
[12]
  % of binding to wild-type peptide: 109%
[13]
  % of binding to wild-type peptide: 87.5%
[14]
  % of binding to wild-type peptide: 32.7%
[15]
  % of binding to wild-type peptide: 0.08%
[16]
  % of binding to wild-type peptide: 116%
[17]
  % of binding to wild-type peptide: 26.4%
[18]
  % of binding to wild-type peptide: 54.3%
[19]
  % of binding to wild-type peptide: 100%
[20]
  % of binding to wild-type peptide: 79.1%
[21]
  % of binding to wild-type peptide: 133%
[22]
  % of binding to wild-type peptide: 0.15%
[23]
  % of binding to wild-type peptide: 77.9%
[24]
  % of binding to wild-type peptide: 223%
[25]
  % of binding to wild-type peptide: 56.5%
[26]
  % of binding to wild-type peptide: 86.4%
[27]
  % of binding to wild-type peptide: 100%
[28]
  % of binding to wild-type peptide: 9.36%
[29]
  % of binding to wild-type peptide: 69.2%
[30]
  % of binding to wild-type peptide: 223%
[31]
  % of binding to wild-type peptide: 13.7%
[32]
  % of binding to wild-type peptide: 18.5%
[33]
  % of binding to wild-type peptide: 4.49%
[34]
  % of binding to wild-type peptide: 0%
[35]
  % of binding to wild-type peptide: 132%
[36]
  % of binding to wild-type peptide: 0%
[37]
  % of binding to wild-type peptide: 75.9%

Reference: patent US20190241648A1 (STATEN BIOTECHNOLOGY B V, published 2019)
